Source: patent publication US20250346646A1, “COMPOUNDS USEFUL TO TREAT METABOLIC DISORDERS” (President and Fellows of Harvard College, priority 2016, published 2025)

Experiments:
[1] = target: T1, Mouse aP2 (Mus musculus, UniProt P04117); assay: Biacore binding of CA33 to lipid-bound and lipid-free aP2
T1 construct: 10 His-tag (N, cleaved yes); TEV protease site (N, cleaved yes); made in house; host or cells: E. coli BL21DE3
T1 sequence (P04117 1-132): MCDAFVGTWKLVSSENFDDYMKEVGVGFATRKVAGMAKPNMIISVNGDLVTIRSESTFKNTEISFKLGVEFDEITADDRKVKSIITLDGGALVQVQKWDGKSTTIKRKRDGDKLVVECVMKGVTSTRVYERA
Method: The affinity of anti-aP2 binding to aP2 (recombinantly generated in E. coli as described below) was determined by biomolecular interaction analysis, using a Biacore T200 system (GE Healthcare). Affinipure F(ab′)2 fragment goat anti-mouse IgG, Fc fragment specific (Jackson ImmunoResearch Lab, Inc.) in 10 mM NaAc, pH 5 buffer was immobilized on a CM5 Sensor Chip via amine coupling chemistry to a capture level between 4500-6000 response units (RU) using HBS-EP+(GE Healthcare) as the running buffer. Anti-aP2 IgG was diluted to between 1-10 μg/ml in running buffer. A 60 s injection of anti-aP2 IgG at 10 μl/min was used for capture by the immobilized anti-mouse IgG, Fc then aP2 was titrated from 25 nM to 3.13 nM over the captured anti-aP2 for 180 s at 30 μl/min followed by 300 s dissociation. The surface was regenerated by 2×60 s 40 mM HCl and 1×30 s 5 mM NaOH at 10 μl/min. The data were analyzed using Biacore T200 evaluation software (version 1.0) using the 1:1 binding model with local Rmax. For CA33, 60 s injection of the antibody at 10 μl/min was used for capture by the immobilized anti-mouse IgG, Fc then aP2 was titrated from 40 μM to 0.625 μM over the captured anti-aP2 for 180 s at 30 μl/min followed by 300 s dissociation. The surface was regenerated by 1×60 s 40 mM HCl, 1×30 s 5 mM NaOH and 1×60 s 40 mM HCl at 10 μl/min. Steady state fitting was used to determine affinity values. […]

[2] = target: T1, Mouse aP2; assay: Biacore antibody cross-blocking vs H3; format: binding
Method: FIG. 10B is a table of antibody crossblocking of H3 vs. CA33, CA13, CA15, and CA23 as determined by Biacore analysis. ++=complete blocking; +=partial blocking; −=no crossblocking.
The assay was performed by injecting mouse aP2 in the presence or absence of mouse anti-aP2 IgG over captured rabbit anti-aP2 IgG. Biomolecular interaction analysis was performed using a Biacore T200 (GE Healthcare Bio-Sciences AB). Anti-aP2 rabbit IgG transient supernatants were captured on the immobilized anti-rabbit Fc surfaces (one supernatant per flowcell) using a flow rate of 10 μl/min and a 60 s injection to give response levels above 200RU. Then mouse aP2 at 100 nM, 0 nM or mouse aP2 at 100 nM plus mouse anti-aP2 IgG at 500 nM were passed over for 120 s followed by 120 s dissociation. The surfaces were regenerated with 2×60 s 40 mM HCl and 1×30 s 5 mM NaOH.
In further analysis, epitope identification based on hydrogen-deuterium exchange mass spectrometry experiments, for example, as described by Pandit et al. (2012) J. Mol. Recognit. […] Co-crystallization of the Fab fragments of CA33 and H3 with aP2 (FIG. 10D) was then conducted. […] Despite the partial blocking of H3 by CA33, we observed that there is in fact no direct overlap of their epitopes. Instead, the significant movement of the region around aP2 Phe58 may partially block binding of one antibody by the other in the competition experiments. […]

[3] = target: human glucagon receptor (Homo sapiens, UniProt P47871); assay: cAMP-response element luciferase reporter in CHO-K1 cells expressing human GCGR-GFP; format: cell-based; conditions: 1 ug/ml aP2, 25 nM glucagon, 20 μg/ml antibody; 4 hours post stimulation
Sequence of human glucagon receptor (P47871 26-477): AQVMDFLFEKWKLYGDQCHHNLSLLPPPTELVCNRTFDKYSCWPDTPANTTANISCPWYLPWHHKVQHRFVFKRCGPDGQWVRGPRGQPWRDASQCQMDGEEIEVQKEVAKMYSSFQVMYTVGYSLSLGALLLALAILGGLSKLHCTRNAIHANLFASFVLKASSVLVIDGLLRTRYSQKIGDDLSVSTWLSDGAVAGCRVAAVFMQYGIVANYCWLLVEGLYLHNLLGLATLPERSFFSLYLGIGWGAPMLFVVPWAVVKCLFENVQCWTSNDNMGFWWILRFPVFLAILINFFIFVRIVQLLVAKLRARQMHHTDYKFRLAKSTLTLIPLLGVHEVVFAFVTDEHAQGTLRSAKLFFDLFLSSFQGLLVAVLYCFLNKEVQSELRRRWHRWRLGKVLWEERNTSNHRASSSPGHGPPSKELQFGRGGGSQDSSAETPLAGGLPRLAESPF
Method: Bar graphs represent mean±standard deviation (s.d.), n=4-5 per group. *P<0.05, **P<0.01, ***P≤0.001, ****P≤0.0001, ns P>0.05. Multiple group comparisons were done using one-way ANOVA statistics with Tukey post-test correction. Graphs show data as mean±standard error of mean (s.e.m.), analyzed using two-way ANOVA.
During cloning hexahistadine and WELQ protease site was added for protein purification. Murine aP2 gene was cloned into pet21+ vector after the hexahistadine tag and TEV protease site for ease of purification.
Plasmids were transfected using Lipofectamine (Invitrogen) according to manufacturer's instructions. Transiently transfected cells were grown in appropriate selection antibiotics where applicable for stable cell line generation. Following three passages under selection media, single cell colonies were picked and expanded for experimentation after validation.

[4] = target: T2, glucagon/aP2 complex in wild-type serum (Mus musculus, UniProt P04117); assay: Co-immunoprecipitation of glucagon and aP2 from serum; conditions: pre-incubation of wild-type serum with antibody
T2 construct: from tissue; host or cells: serum of wild-type mice
T2 sequence (P04117 1-132): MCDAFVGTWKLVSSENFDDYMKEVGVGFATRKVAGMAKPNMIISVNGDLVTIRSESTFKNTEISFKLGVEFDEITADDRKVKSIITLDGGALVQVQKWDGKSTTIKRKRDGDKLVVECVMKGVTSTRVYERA

[5] = target: aP2 (Homo sapiens, UniProt P15090); assay: Paranaric acid (lipid) binding to aP2; conditions: vs IgG control antibody, over pH
Sequence of aP2 (P15090 whole entry): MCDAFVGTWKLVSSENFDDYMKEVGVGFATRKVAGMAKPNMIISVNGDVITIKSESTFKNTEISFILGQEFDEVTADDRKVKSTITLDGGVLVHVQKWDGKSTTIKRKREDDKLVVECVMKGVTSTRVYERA
Method: FIG. 10F is a line graph showing paranaric acid binding to aP2 (relative fluorescence) vs. pH in the presence of IgG control antibody (circles) or CA33 antibody (squares).
In further analysis, epitope identification based on hydrogen-deuterium exchange mass spectrometry experiments, for example, as described by Pandit et al. (2012) J. Mol. Recognit. […] Co-crystallization of the Fab fragments of CA33 and H3 with aP2 (FIG. 10D) was then conducted. […] Despite the partial blocking of H3 by CA33, we observed that there is in fact no direct overlap of their epitopes. Instead, the significant movement of the region around aP2 Phe58 may partially block binding of one antibody by the other in the competition experiments. In addition, the low affinity of the CA33 Fab can be explained by the crystal structure. Unusually, only one amino acid in the heavy chain of CA33 makes a contact with aP2, and the majority of the contacts are through the light chain (FIGS. 10D and 10E). In contrast, H3-aP2 contact is more conventional, with both Fab chains interacting with aP2. […] H3 does bind directly to the ‘lid’ but has limited activity. Binding of CA33 to lipid-bound aP2 or lipid-free aP2 was also examined using biochemical analysis (Biacore). CA33 binds to both lipid-bound aP2 and lipid-free aP2 with the following affinities: […]

B1: CA33: low-affinity anti-aP2 monoclonal antibody, rabbit-mouse hybrid, produced and purified by UCB; VL Seq. ID 28, VH Seq. ID 41 (antibody, V domains shown)
VH: QSVEESGGRLVTPGTPLTLTCTVSGFSLSTYYMSWVRQAPGKGLEWIGIIYPSGSTYCASWAKGRFTISKASTTVDLKITSPTTEDTATYFCARPDNDGTSGYLSGFGLWGQGTLVTVSS
VL: DVVMTQTPASVSEPVGGTVTIKCQASEDISRYLVWYQQKPGQPPKRLIYKASTLASGVPSRFKGSGSGTDFTLTISDLECDDAATYYCQCTYGTYAGSFFYSFGGGTEVVVE
modifications: Rabbit Ab 909 VH region; Rabbit Ab 909 VL-region
[1]; De-lipidated mouse aP2, Biacore
  Kd: 4.7 µM
[1]; Lipid-loaded mouse aP2, Biacore
  Kd: 9.3 µM
[2]
  Blocking of H3 binding to aP2: partially blocked
[3]
  Effect on glucagon potentiation by aP2 (cAMP response, luminescence): blocks the glucagon potentiation effect of aP2
[4]
  Co-immunoprecipitation of glucagon and aP2: prevents co-immunoprecipitation
[5]
  Effect on lipid (paranaric acid) binding to aP2: not substantially altered
